Target: 5768-p27 V3 peptide (HIV-1 clade B isolate 5768-p27)
Experiment: SPR

B1: 19b antigen-binding fragment (Fab) (Fab, V domains shown)
VH: EVQLVQSGGALIQPGGSLRLSCAASGFTFVDYAMSWVRQAPGKGLQWVSTIIGSGADTYYTDSVKGRFTISRDNSNNTVHLQMNSLRADDTALYYCVRGVFDLWGQGTLVTVSS
VL: DIVLTQSPPSLSASVGDRVTITCQASQDISDHLSWFQQKPGKAPKLLVYGVSSLEAGVPSRFSVSGSGTHFTFTVNGLQPEDLATYFCQQYDDLPWTFGPGTVVEVK
  koff: 0.000147 s⁻¹

Reference: article PMC13483476 (2026)
